# Read-outs that look alike come from different tables or passages of the source.
# Tests used:
# [1] = system: MetMab full heavy chain with T366V K409V, with MetMab light chain; assay: SEC
# [2] = system: MetMab full heavy chain with T366V K409V, with MetMab light chain; assay: SEC; remark: listed apart in the source
# [3] = system: MetMab full heavy chain with K360D D399M Y407A, with MetMab light chain; assay: SEC
# [4] = system: MetMab full heavy chain with K360D D399M Y407A, with MetMab light chain; assay: SEC; remark: listed apart in the source
# [5] = system: MetMab full heavy chain with E345R Q347R T366V K409V, with MetMab light chain; assay: SEC
# [6] = system: MetMab full heavy chain with E345R Q347R T366V K409V, with MetMab light chain; assay: SEC; remark: listed apart in the source
# [7] = system: MetMab full heavy chain with T350V T366L K392L T394W, with MetMab light chain; assay: SEC
# [8] = system: MetMab full heavy chain with T350V T366L K392L T394W, with MetMab light chain; assay: SEC; remark: listed apart in the source
# [9] = system: MetMab full heavy chain with T350V L351Y F405A Y407V, with MetMab light chain; assay: SEC
# [10] = system: MetMab full heavy chain with T350V L351Y F405A Y407V, with MetMab light chain; assay: SEC; remark: listed apart in the source
# [11] = system: MetMab full heavy chain with D399M Y407A, with MetMab light chain; assay: SEC
# [12] = system: MetMab full heavy chain with D399M Y407A, with MetMab light chain; assay: SEC; remark: listed apart in the source
# IgG1 Fc with T366V K409V = assay: SEC
# [13] = system: EGFR domain 3 - Fc with T350V T366L K392L T394W; assay: FRET or BRET
# [14] = system: EGFR domain 3 - Fc with D399M Y407A; assay: FRET or BRET
substance,measurement,setting,value
IgG1 Fc with D399M Y407A,% AB heterodimer,[1],26.9%
same,% AB heterodimer,[2],88.6%
IgG1 Fc with E345R Q347R T366V K409V,% AB heterodimer,[3],46.2%
same,% AB heterodimer,[4],92.9%
IgG1 Fc with K360D D399M Y407A,% AB heterodimer,[5],32.5%
same,% AB heterodimer,[6],93.3%
IgG1 Fc with T350V L351Y F405A Y407V,% AB heterodimer,[7],18.3%
same,% AB heterodimer,[8],94.3%
IgG1 Fc with T350V T366L K392L T394W,% AB heterodimer,[9],25.6%
same,% AB heterodimer,[10],87.6%
IgG1 Fc with T366V K409V,% AB heterodimer,[11],42.3%
same,% AB heterodimer,[12],89.9%
IgG1 Fc with T366V K409V (domain or fragment),% BB homodimer (co-expressed with m8),IgG1 Fc with T366V K409V,8.2%
VEGFR1 domain 3 - Fc with T350V L351Y F405A Y407V,% AB heterodimer,[13],94.8%
VEGFR1 domain 3 - Fc with T366V K409V,% AB heterodimer,[14],89%

# Source: article PMC4866497
